US20180311371A1 (Hoffmann-La Roche, published 2018)
Like-named read-outs stand apart in the source and are kept apart here.

Experiments:
[1] = molecular target: T1, human TPBG extracellular domain, His6Avi, biotinylated (human, biotinylated); assay: ELISA; biotinylated TPBG-AviHis on streptavidin plate; Fab titrated from 2 µg/ml
T1 construct: also called huTPBG; human TPBG-AviHis
T1 chain: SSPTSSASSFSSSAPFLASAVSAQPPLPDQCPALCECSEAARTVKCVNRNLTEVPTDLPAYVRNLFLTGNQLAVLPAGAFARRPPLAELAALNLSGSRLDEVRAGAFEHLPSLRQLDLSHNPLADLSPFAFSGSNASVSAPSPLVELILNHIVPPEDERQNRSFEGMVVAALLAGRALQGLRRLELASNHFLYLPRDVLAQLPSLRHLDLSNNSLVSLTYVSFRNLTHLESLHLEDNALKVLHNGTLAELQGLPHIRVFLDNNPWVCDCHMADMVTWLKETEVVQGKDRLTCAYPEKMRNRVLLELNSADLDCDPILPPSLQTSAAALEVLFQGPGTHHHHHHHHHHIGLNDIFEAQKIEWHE

[2] = molecular target: T2, minipig TPBG extracellular domain, His6Avi, biotinylated (minipig, biotinylated); assay: as above
T2 construct: also called mpTPBG; minipig TPBG-AviHis
T2 chain: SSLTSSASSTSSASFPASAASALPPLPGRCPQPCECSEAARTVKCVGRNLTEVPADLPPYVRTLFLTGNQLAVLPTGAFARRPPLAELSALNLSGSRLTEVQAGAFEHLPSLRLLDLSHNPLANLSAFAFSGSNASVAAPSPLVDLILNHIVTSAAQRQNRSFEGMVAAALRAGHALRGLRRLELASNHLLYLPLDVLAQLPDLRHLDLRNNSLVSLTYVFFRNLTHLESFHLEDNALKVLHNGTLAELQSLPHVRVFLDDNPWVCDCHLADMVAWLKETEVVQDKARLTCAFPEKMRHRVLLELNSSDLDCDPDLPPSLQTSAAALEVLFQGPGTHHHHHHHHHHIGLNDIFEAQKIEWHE

[3] = molecular target: T3, human TPBG (trophoblast glycoprotein), full length, cell surface expressed (human, UniProt Q13641 32-420); assay: cell-based or functional assay
T3 sequence: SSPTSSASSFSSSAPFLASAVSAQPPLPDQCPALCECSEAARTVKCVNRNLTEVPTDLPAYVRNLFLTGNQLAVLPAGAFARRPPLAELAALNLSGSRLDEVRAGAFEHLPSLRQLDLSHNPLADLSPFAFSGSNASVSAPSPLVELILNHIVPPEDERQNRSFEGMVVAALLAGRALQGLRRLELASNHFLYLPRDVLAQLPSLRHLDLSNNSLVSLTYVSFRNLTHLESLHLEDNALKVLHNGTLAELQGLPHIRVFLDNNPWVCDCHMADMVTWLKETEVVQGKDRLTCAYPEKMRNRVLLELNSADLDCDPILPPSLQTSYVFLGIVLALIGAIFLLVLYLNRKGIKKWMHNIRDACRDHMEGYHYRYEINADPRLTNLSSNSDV

[4] = molecular target: T4, minipig TPBG, full length, cell surface expressed on CHO-K1 cells (minipig); assay: cell-based or functional assay
T4 chain: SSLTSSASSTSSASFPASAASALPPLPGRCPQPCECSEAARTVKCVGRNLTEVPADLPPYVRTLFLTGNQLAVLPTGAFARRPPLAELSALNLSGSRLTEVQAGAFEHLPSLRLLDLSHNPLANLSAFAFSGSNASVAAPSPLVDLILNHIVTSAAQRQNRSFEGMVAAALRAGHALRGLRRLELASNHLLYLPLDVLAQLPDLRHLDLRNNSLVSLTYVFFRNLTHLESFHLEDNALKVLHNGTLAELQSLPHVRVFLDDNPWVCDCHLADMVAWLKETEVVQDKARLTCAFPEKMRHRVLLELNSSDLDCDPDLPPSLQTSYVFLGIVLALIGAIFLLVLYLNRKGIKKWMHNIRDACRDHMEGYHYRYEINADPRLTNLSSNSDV

[5] = molecular target: T3, human TPBG (trophoblast glycoprotein), …; assay: cell-based or functional assay; remark: listed apart in the source
[6] = molecular target: T3, human TPBG (trophoblast glycoprotein), …; assay: flow cytometry on SW620 clone 4 cells; ratio of MFI; replicate 2
[7] = molecular target: T3, human TPBG (trophoblast glycoprotein), …; assay: cell ELISA on MCF7 cells; titrated from 5 µg/ml
[8] = molecular target: T3, human TPBG (trophoblast glycoprotein), …; assay: cell-based or functional assay; remark: listed apart in the source
[9] = molecular target: T5, recombinant extracellular domain of minipig TPBG (Biacore analyte) (minipig); assay: SPR Biacore T200; Fab captured by anti-huFab, minipig TPBG injected
T5 chain: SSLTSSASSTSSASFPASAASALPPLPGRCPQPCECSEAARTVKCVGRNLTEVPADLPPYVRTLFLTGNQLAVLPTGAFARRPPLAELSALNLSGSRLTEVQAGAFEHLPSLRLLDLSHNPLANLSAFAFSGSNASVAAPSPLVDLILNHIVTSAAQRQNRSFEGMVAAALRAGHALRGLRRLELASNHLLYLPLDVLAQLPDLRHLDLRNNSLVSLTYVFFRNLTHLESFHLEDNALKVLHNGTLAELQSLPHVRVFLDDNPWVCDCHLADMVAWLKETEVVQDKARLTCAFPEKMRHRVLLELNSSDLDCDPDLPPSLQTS

[10] = molecular target: T3, human TPBG (trophoblast glycoprotein), …; assay: cell-based or functional assay; remark: listed apart in the source
[11] = molecular target: T3, human TPBG (trophoblast glycoprotein), …; assay: flow cytometry on SW620 clone 4 cells; ratio of MFI; replicate 1
[12] = molecular target: T6, huTPBG (recombinant human TPBG immobilised on the Biacore chip) (human, UniProt Q13641 32-355, limits assumed); assay: SPR Biacore T200; huTPBG amine-coupled, Fab injected
T6 construct: also called human TPBG antigen
T6 sequence: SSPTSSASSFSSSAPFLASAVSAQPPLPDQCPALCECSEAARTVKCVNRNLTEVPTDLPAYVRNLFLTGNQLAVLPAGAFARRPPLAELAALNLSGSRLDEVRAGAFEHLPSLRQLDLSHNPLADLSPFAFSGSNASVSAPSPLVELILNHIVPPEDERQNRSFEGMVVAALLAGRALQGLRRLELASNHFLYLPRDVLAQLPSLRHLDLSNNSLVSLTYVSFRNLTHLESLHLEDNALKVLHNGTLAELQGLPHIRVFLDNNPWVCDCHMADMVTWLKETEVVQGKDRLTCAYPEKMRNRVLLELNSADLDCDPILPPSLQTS

[13] = molecular target: T3, human TPBG (trophoblast glycoprotein), …; assay: cell-based or functional assay; remark: listed apart in the source
[14] = molecular target: T3, human TPBG (trophoblast glycoprotein), …

B1: anti-TPBG antibody 097, Fab fragment (Fab, V domains shown)
VH: EVQLLESGGGLAQPGGSLRLSCAASGFTFNNDAMTWVRQAPGKGLEWVSAISGSGGSTYYADSVKGRFTISRDNSKNTLYLQMNSLRAEDTAVYYCAKGGSWGDWYYYFYPMDVWGQGTTVTVSS
VL: not shown
notes: also called Fab4
EC50 [1]: 0.0152 µg/mL
EC50 [2]: 0.0436 µg/mL
EC50 cytotoxicity, Fab-PE sandwich construct, MCF7 [3]: 0.935 nM
X-fold higher potency compared to TPBG(H8)PE, MCF7, first experiment [3]: 1.3 fold
X-fold higher potency compared to TPBG(H8)PE, MCF7, second experiment [3]: 2.4 fold
EC50 cytotoxicity, Fab + anti-kappa-Fab-PE, CHO-K1/minipig TPBG, replicate 1 [4]: 2.08 nM
EC50 cytotoxicity, Fab + anti-kappa-Fab-PE, CHO-K1/minipig TPBG, replicate 2 [4]: 2.15 nM
EC50 cytotoxicity, Fab + anti-kappa-Fab-PE, CHO-K1/human TPBG, replicate 1 [5]: 0.3 nM
EC50 cytotoxicity, Fab + anti-kappa-Fab-PE, CHO-K1/human TPBG, replicate 2 [5]: 0.33 nM
Fold change pH 7.2 vs pH 5.5 [6]: 1.2 fold
EC50 [7]: 0.451 µg/mL
internalization after 0.5 h, MCF7 cells [8]: 28%
internalization after 1.0 h, MCF7 cells [8]: 42%
internalization after 2.0 h, MCF7 cells [8]: 61%
Kd [9]: 1.35 nM
koff [9]: 0.000254 s⁻¹
kon [9]: 189000 M⁻¹ s⁻¹
EC50 cytotoxicity, Fab-PE sandwich construct, H1975, replicate 1 [10]: 0.826 nM
EC50 cytotoxicity, Fab-PE sandwich construct, H1975, replicate 2 [10]: 0.656 nM
EC50 cytotoxicity, Fab-PE sandwich construct, H1975, replicate 3 [10]: 0.706 nM
Fold change pH 7.2 vs pH 5.5 [11]: 1.2 fold
Kd [12]: 0.82 nM
koff [12]: 0.000814 s⁻¹
kon [12]: 993000 M⁻¹ s⁻¹

B2: H8 Fab coupled to PE24 (LR8M) via sortase coupling (Fab, V domains shown)
VH: EVQLQQSGPDLVKPGASVKISCKASGYSFTGYYMHWVKQSHGKSLEWIGRINPNNGVTLYNQKFKDKAILTVDKSSTTAYMELRSLTSEDSAVYYCARSTMITNYVMDYWGQVTSVTVSS
VL: SIVMTQTPTFLLVSAGDRVTITCKASQSVSNDVAWYQQKPGQSPTLLISYTSSRYAGVPDRFIGSGYGTDFTFTISTLQAEDLAVYFCQQDYNSPPTFGGGTKLEIKR
EC50 cytotoxicity, sortase-coupled Fab-PE, MCF7 [13]: 0.059 nM
EC50 [14]: 1.56 nM

B3: 051 Fab coupled to PE24 (LR8M) via sortase coupling (Fab)
heavy: EVQLLESGGGLLQPGGSLRLSCAASGFTFSIYWMTWVRQAPGKGLEWVSAISGSGGSTYYADSVKGRFTISRDNSKNTLYLQMNSLRAEDTAVYYCAKDYYSNVYWGQGTLVTVSSASTKGPSVFPLAPSSKSTSGGTAALGCLVKDYFPEPVTVSWNSGALTSGVHTFPAVLQSSGLYSLSSVVTVPSSSLGTQTYICNVNHKPSNTKVDKKVEPKSCGGGSLPETGGGRHRQPRGWEQLYPTGAEFLGDGGAVSFSTRGTQNWTVERLLQAHRQLEEGGYVFVGYHGTFLEAAQSIVFGGVRARSQDLDAIWAGFYIAGDPALAYGYAQDQEPDAAGRIRNGALLRVYVPRSSLPGFYATSLTLAAPEAAGEVERLIGHPLPLRLDAITGPEESGGRLETILGWPLAERTVVIPSAIPTDPRNVGGDLDPSSIPDSEAAISALPDYASQPGKPPREDL
light: DIQMTQSPSSVSASVGDRVTITCRASQGIYSWLAWYQQKPGKAPKLLIYAASSLQSGVPSRFSGSGSGTDFTLTISSLQPEDFATYYCQQSDSPPYTFGQGTKLEIKRTVAAPSVFIFPPSDEQLKSGTASVVCLLNNFYPREAKVQWKVDNALQSGNSQESVTEQDSKDSTYSLSSTLTLSKADYEKHKVYACEVTHQGLSSPVTKSFNRGEC
EC50 cytotoxicity, sortase-coupled Fab-PE, MCF7 [13]: 0.036 nM
X-fold higher potency compared to TPBG(H8)PE, MCF7 [13]: 1.7 fold
EC50 [14]: 0.67 nM

B4: 091 Fab coupled to PE24 (LR8M) via sortase coupling (Fab)
heavy: EVHLLESGGGLVHPGGSLRLSCAASGFTFRSDAMHWVRQAPGKGLEWVSGVSGSGGSPYYADSVKGRFTISRDDSKTTLYLQMNSLRAEDTAVYYCATGGSIAGSYYYYPMDVWGQGTTVTVSSASTKGPSVFPLAPSSKSTSGGTAALGCLVKDYFPEPVTVSWNSGALTSGVHTFPAVLQSSGLYSLSSVVTVPSSSLGTQTYICNVNHKPSNTKVDKKVEPKSCGGGSLPETGGGRHRQPRGWEQLYPTGAEFLGDGGAVSFSTRGTQNWTVERLLQAHRQLEEGGYVFVGYHGTFLEAAQSIVFGGVRARSQDLDAIWAGFYIAGDPALAYGYAQDQEPDAAGRIRNGALLRVYVPRSSLPGFYATSLTLAAPEAAGEVERLIGHPLPLRLDAITGPEESGGRLETILGWPLAERTVVIPSAIPTDPRNVGGDLDPSSIPDSEAAISALPDYASQPGKPPREDL
light: not shown
EC50 cytotoxicity, sortase-coupled Fab-PE, MCF7 [13]: 0.033 nM
X-fold higher potency compared to TPBG(H8)PE, MCF7 [13]: 1.8 fold
EC50 [14]: 0.61 nM

B5: 097 Fab coupled to PE24 (LR8M) via sortase coupling (Fab)
heavy: EVQLLESGGGLAQPGGSLRLSCAASGFTFNNDAMTWVRQAPGKGLEWVSAISGSGGSTYYADSVKGRFTISRDNSKNTLYLQMNSLRAEDTAVYYCAKGGSWGDWYYYFYPMDVWGQGTTVTVSSASTKGPSVFPLAPSSKSTSGGTAALGCLVKDYFPEPVTVSWNSGALTSGVHTFPAVLQSSGLYSLSSVVTVPSSSLGTQTYICNVNHKPSNTKVDKKVEPKSCGGGSLPETGGGRHRQPRGWEQLYPTGAEFLGDGGAVSFSTRGTQNWTVERLLQAHRQLEEGGYVFVGYHGTFLEAAQSIVFGGVRARSQDLDAIWAGFYIAGDPALAYGYAQDQEPDAAGRIRNGALLRVYVPRSSLPGFYATSLTLAAPEAAGEVERLIGHPLPLRLDAITGPEESGGRLETILGWPLAERTVVIPSAIPTDPRNVGGDLDPSSIPDSEAAISALPDYASQPGKPPREDL
light: not shown
EC50 cytotoxicity, sortase-coupled Fab-PE, MCF7 [13]: 0.054 nM
X-fold higher potency compared to TPBG(H8)PE, MCF7 [13]: 1.1 fold
EC50 [14]: 0.63 nM
